Publication PMC9278655

Columns and labels:
Crimson = test: SEC; HPLC (LC-20A), Superdex 200 10/300 GL; 200 uL of fluorescent protein loaded at 10 uM; 0.5 mL/min; 50 mM PBS pH 7
mKate2 = test: as above

## Crimson
Crimson
  stoichiometry N: 2

## mKate2
mKate2
  stoichiometry N: 2
